Patent US20230265179A1 (TWIST BIOSCIENCE, published 2023)

T1: IL1RL1 over-expressed on Expi293 cells (UniProt Q01638 19-556, limits assumed)
T1 construct: whole, on cells; Target of the flow cytometry MFI ratio (over-expressing cells over parent cells); also called cytokine over-expressing Expi293 cells
T1 sequence (looked up): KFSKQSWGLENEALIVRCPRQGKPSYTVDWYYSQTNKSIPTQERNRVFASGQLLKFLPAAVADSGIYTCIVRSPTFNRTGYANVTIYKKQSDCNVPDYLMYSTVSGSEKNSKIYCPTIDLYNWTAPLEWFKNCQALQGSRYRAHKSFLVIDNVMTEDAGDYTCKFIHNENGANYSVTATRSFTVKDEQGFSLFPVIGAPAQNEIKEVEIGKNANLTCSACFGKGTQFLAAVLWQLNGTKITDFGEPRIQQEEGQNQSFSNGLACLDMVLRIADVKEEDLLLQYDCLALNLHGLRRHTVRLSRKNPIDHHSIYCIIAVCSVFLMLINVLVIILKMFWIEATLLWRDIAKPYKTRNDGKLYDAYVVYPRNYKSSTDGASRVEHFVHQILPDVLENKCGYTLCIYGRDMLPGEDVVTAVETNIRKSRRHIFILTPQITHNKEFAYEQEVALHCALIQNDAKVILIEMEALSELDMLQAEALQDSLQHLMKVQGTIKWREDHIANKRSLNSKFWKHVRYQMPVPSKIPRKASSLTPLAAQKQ

T2: IL1RL1 (UniProt Q01638 19-328, limits assumed)
T2 construct: SPR analyte
T2 sequence (looked up): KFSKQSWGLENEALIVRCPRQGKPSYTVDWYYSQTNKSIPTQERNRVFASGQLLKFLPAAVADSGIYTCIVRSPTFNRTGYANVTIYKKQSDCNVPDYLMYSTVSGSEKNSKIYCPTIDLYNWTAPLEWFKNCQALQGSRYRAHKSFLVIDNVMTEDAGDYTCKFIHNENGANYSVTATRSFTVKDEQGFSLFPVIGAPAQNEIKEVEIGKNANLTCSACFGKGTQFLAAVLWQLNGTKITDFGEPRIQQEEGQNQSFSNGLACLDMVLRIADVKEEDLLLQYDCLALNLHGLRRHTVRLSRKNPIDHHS


Assays:
[1] = biological target: T1, IL1RL1 over-expressed on Expi293 cells; assay: flow cytometry, 100 nM antibody, over-expressing Expi293 / parent cells
Description: All incubations and washes were in buffer containing PBS+1% BSA. MFI Ratio is defined by the mean fluorescence intensity (MFI) of the cytokine over-expressing Expi293 cell over the Expi293 parent cell. […] EC50 was calculated in GraphPad Prism.

[2] = biological target: T2, IL1RL1; assay: SPR (Carterra LSA), antibody amine-coupled, 1:1 model;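 further: HC30M sensor chip at 25 °C in HBS-TE, analyte at rising concentrations in buffer containing 0.5 mg/mL BSA, 5 min association then 15 min dissociation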
Description: SPR experiments were performed on a Carterra LSA SPR biosensor equipped with a HC30M chip at 25° C. in HBS-TE. Antibodies were diluted to 10 μg/mL and amine-coupled to the sensor chip by EDC/NHS activation, followed by ethanolamine HCl quenching. Increasing concentrations of analyte were flowed over the sensor chip in HBS-TE with 0.5 mg/mL BSA with 5-minute association and 15-minute dissociation. Following each injection cycle the surface was regenerated with 2× 30-second injections of IgG elution buffer (Thermo). Data were analyzed in Carterra's Kinetics Tool software with 1:1 binding model.

Binder	100 nM FACS (MFI Ratio) [1]	Kd [2]	koff [2]	kon [2]
IL1RL1-252 (antibody, V domains shown, IgG2) VH: EVQLLESGGGLVQPGGSLRLSCAASGFTFSRYHIEWVRQAPGKGLEWVSAISGRGDNTYYADSVKGRFTISRDNSKNTLYLQMNSLRAEDTAVYYCARHKGLQPLDYWGQGTLVTVSS VL: DIQMTQSPSSLSASVGDRVTITCRASQDVSSGVAWYQQKPGKAPKLLIYPKHNRPPGVPSRFSGSGSGTDFTLTISSLQPEDFATYYCSARSVRGNPHVLFGQGTKVEIK	0.58 MFI ratio	–	–	–
IL1RL1-86 (Fc fusion, not shown: a dimerising Fc or GST, VHH-Fc on IgG2 Fc) VHH: EVQLVESGGGLVQPGGSLRLSCAASGGTFSTYAMGWFRQAPGKEREWVASISTSGSTITPYADSVKGRFTISADNSKNTAYLQMNSLKPEDTAVYYCAAIAYEEGVYRWDWGQGTLVTVSS	204 MFI ratio	≤ 0.0762 nM	≤ 1e-05 s⁻¹	131000 M⁻¹ s⁻¹
IL1RL1-82 (Fc fusion, not shown: a dimerising Fc or GST, VHH-Fc on IgG2 Fc) VHH: EVQLVESGGGLVQPGGSLRLSCAASGRTFSTLAMGWFRQAPGKEREWVASISTSGSTITPYADSVKGRFTISADNSKNTAYLQMNSLKPEDTAVYYCAAIAYEEGVYRWDWGQGTLVTVSS	344 MFI ratio	≤ 0.128 nM	≤ 1e-05 s⁻¹	78400 M⁻¹ s⁻¹
IL1RL1-81 (Fc fusion, not shown: a dimerising Fc or GST, VHH-Fc on IgG2 Fc) VHH: EVQLVESGGGLVQPGGSLRLSCAASGVTLDLYAMGWFRQAPGKEREWVASISTSGSTITPYADSVKGRFTISADNSKNTAYLQMNSLKPEDTAVYYCAAIAYEEGVYRWDWGQGTLVTVSS	217 MFI ratio	0.285 nM	4.51e-05 s⁻¹	159000 M⁻¹ s⁻¹
IL1RL1-18 (Fc fusion, not shown: a dimerising Fc or GST, VHH-Fc on IgG2 Fc) VHH: EVQLVESGGGLVQPGGSLRLSCAASGVTLDLYAMGWFRQAPGKEREWVASISTSGSTITPYADSVKGRFTISADNSKNTAYLQMNSLKPEDTAVYYCAAIAHEEGVYRWDWGQGTLVTVSS	277 MFI ratio	0.312 nM	3.95e-05 s⁻¹	126000 M⁻¹ s⁻¹
IL1RL1-52 (Fc fusion, not shown: a dimerising Fc or GST, VHH-Fc on IgG2 Fc) VHH: EVQLVESGGGLVQPGGSLRLSCAASGGTISTYAMGWFRQAPGKEREWVASISTSGSTITPYADSVKGRFTISADNSKNTAYLQMNSLKPEDTAVYYCAAIAYEEGVYRWDWGQGTLVTVSS	225 MFI ratio	0.121 nM	3.48e-05 s⁻¹	288000 M⁻¹ s⁻¹
IL1RL1-2 (Fc fusion, not shown: a dimerising Fc or GST, VHH-Fc on IgG2 Fc) VHH: EVQLVESGGGLVQPGGSLRLSCAASGGTFSAYAMGWFRQAPGKEREWVASISTSGSTITPYADSVKGRFTISADNSKNTAYLQMNSLKPEDTAVYYCAAIAYEEGVYRWDWGQGTLVTVSS	277 MFI ratio	0.265 nM	3.11e-05 s⁻¹	118000 M⁻¹ s⁻¹
IL1RL1-270 (antibody, V domains shown, IgG2) VH: EVQLLESGGGLVQPGGSLRLSCAASGFTFSRYFMGWVRQAPGKGLEWVSGITRSGSTNYRDSVKGRFTISRDNSKNTLYLQMNSLRAEDTAVYYCAKGPGTRGDYWGQGTLVTVSS VL: DIQMTQSPSSLSASVGDRVTITCRASQPIGPDLLWYQQKPGKAPKLLIYGASRLQRGVPSRFSGSGSGTDFTLTISSLQPEDFATYYCASRNGWNHVVFGQGTKVEIK	0.31 MFI ratio	–	–	–
IL1RL1-1 (Fc fusion, not shown: a dimerising Fc or GST, VHH-Fc on IgG2 Fc) VHH: EVQLVESGGGLVQPGGSLRLSCAASGFTLDAWPMSWFRQAPGKEREVVAVIYTSDGSTYYADSVKGRFTISADNSKNTAYLQMNSLKPEDTAVYYCAASKWYGGFGDTDIEWGQGTLVTVSS	660 MFI ratio	0.584 nM	0.000101 s⁻¹	172000 M⁻¹ s⁻¹
IL1RL1-200 (antibody, V domains shown, IgG2) VH: EVQLLESGGGLVQPGGSLRLSCAASGFTFKSYGMHWVRQAPGKGLEWVSLIPHTGNPTYYADSVKGRFTISRDNSKNTLYLQMNSLRAEDTAVYYCARGGPRGNKYYFDYWGQGTLVTVSS VL: DIQMTQSPSSLSASVGDRVTITCSGDKLGHTYTSWYQQKPGKAPKLLIYRKSNRPSGVPSRFSGSGSGTDFTLTISSLQPEDFATYYCYSRDRSGNHLGMFGQGTKVEIK	1 MFI ratio	–	–	–
IL1RL1-256 (antibody, V domains shown, IgG2) VH: EVQLLESGGGLVQPGGSLRLSCAASGFTFDRYRMTWVRQAPGKGLEWVSSIGANGAPTYYADSVKGRFTISRDNSKNTLYLQMNSLRAEDTAVYYCARGRLFDYWGQGTLVTVSS VL: DIQMTQSPSSLSASVGDRVTITCQGASLRNYYASWYQQKPGKAPKLLIYGNNNRPSGVPSRFSGSGSGTDFTLTISSLQPEDFATYYCASRSSKGNPHVLFGQGTKVEIK	0.6 MFI ratio	–	–	–
IL1RL1-257 (antibody, V domains shown, IgG2) VH: EVQLLESGGGLVQPGGSLRLSCAASGFTFSPRRMSWVRQAPGKGLEWVSAITGSGGSTYYADSVKGRFTISRDNSKNTLYLQMNSLRAEDTAVYYCARGRLFDYWGQGTLVTVSS VL: DIQMTQSPSSLSASVGDRVTITCRASQSISGYLNWYQQKPGKAPKLLIYGNNNRPSGVPSRFSGSGSGTDFTLTISSLQPEDFATYYCSQNTHVPYTFGQGTKVEIK	1.38 MFI ratio	–	–	–
IL1RL1-239 (antibody, V domains shown, IgG2) VH: EVQLLESGGGLVQPGGSLRLSCAASGFTFRRYVMGWVRQAPGKGLEWVSSISGSSGTTYYADSVKGRFTISRDNSKNTLYLQMNSLRAEDTAVYYCAKAYYGGFDYWGQGTLVTVSS VL: DIQMTQSPSSLSASVGDRVTITCSASSSVSSSYLHWYQQKPGKAPKLLIYRKSNRPSGVPSRFSGSGSGTDFTLTISSLQPEDFATYYCQQSYSTPTFGQGTKVEIK	1.93 MFI ratio	–	–	–
IL1RL1-214 (antibody, V domains shown, IgG2) VH: EVQLLESGGGLVQPGGSLRLSCAASGFTFNAYPMTWVRQAPGKGLEWVSAISGRGDNTYYADSVKGRFTISRDNSKNTLYLQMNSLRAEDTAVYYCARPPKRGPRFDYWGQGTLVTVSS VL: DIQMTQSPSSLSASVGDRVTITCKASENVDTYVSWYQQKPGKAPKLLIYGRNKRPSGVPSRFSGSGSGTDFTLTISSLQPEDFATYYCQQGHTLPWTFGQGTKVEIK	1.34 MFI ratio	–	–	–
IL1RL1-262 (antibody, V domains shown, IgG2) VH: EVQLLESGGGLVQPGGSLRLSCAASGFTFSRYAMNWVRQAPGKGLEWVSAISGSGGNTYYADSVKGRFTISRDNSKNTLYLQMNSLRAEDTAVYYCARVWRNSLDYWGQGTLVTVSS VL: DIQMTQSPSSLSASVGDRVTITCSGDRLGEKYVSWYQQKPGKAPKLLIYENNNRPSGVPSRFSGSGSGTDFTLTISSLQPEDFATYYCVARAVRGNPHVLFGQGTKVEIK	6.04 MFI ratio	–	–	–
IL1RL1-230 (antibody, V domains shown, IgG2) VH: EVQLLESGGGLVQPGGSLRLSCAASGFTFSGYIMAWVRQAPGKGLEWVSSISSTGFKTYYADSVKGRFTISRDNSKNTLYLQMNSLRAEDTAVYYCAKGNSRYVFDYWGQGTLVTVSS VL: DIQMTQSPSSLSASVGDRVTITCKASDHIGKFLTWYQQKPGKAPKLLIYGRNKRPSGVPSRFSGSGSGTDFTLTISSLQPEDFATYYCNSRDTSGLHYVFGQGTKVEIK	1.43 MFI ratio	–	–	–
IL1RL1-245 (antibody, V domains shown, IgG2) VH: EVQLLESGGGLVQPGGSLRLSCAASGFTLSSYAMSWVRQAPGKGLEWVSGITRSGSTNYRDSVKGRFTISRDNSKNTLYLQMNSLRAEDTAVYYCAKFPFTHGKFDYWGQGTLVTVSS VL: DIQMTQSPSSLSASVGDRVTITCRASQGVRTSLAWYQQKPGKAPKLLIYRASTLASGVPSRFSGSGSGTDFTLTISSLQPEDFATYYCASRSSKGNPHVLFGQGTKVEIK	1.28 MFI ratio	–	–	–
IL1RL1-221 (antibody, V domains shown, IgG2) VH: EVQLLESGGGLVQPGGSLRLSCAASGFTFPKYDMMWVRQAPGKGLEWVSSIRGSSSSTYYADSVKGRFTISRDNSKNTLYLQMNSLRAEDTAVYYCARAGRILFDYWGQGTLVTVSS VL: DIQMTQSPSSLSASVGDRVTITCRASQTIERRLNWYQQKPGKAPKLLIYGRNKRPSGVPSRFSGSGSGTDFTLTISSLQPEDFATYYCGQSYRYPLTFGQGTKVEIK	0.51 MFI ratio	–	–	–
IL1RL1-269 (antibody, V domains shown, IgG2) VH: EVQLLESGGGLVQPGGSLRLSCAASGFTFDRYRMMWVRQAPGKGLEWVSAITGSGGSTYYADSVKGRFTISRDNSKNTLYLQMNSLRAEDTAVYYCAKGLRRFDYWGQGTLVTVSS VL: DIQMTQSPSSLSASVGDRVTITCRASQSVDRYFNWYQQKPGKAPKLLIYGKNIRPSGVPSRFSGSGSGTDFTLTISSLQPEDFATYYCGQSYRYPLTFGQGTKVEIK	0.85 MFI ratio	–	–	–
IL1RL1-3 (Fc fusion, not shown: a dimerising Fc or GST) VHH: EVQLVESGGGLVQPGGSLRLSCAASGRTFSMGWFRQAPGKEREWVSSIGIAGTPTFYADSVKGRFTISADNSKNTAYLQMNSLKPEDTAVYYCASTDDYGVDWGQGTLVTVSS	492 MFI ratio	≤ 0.0524 nM	≤ 1e-05 s⁻¹	191000 M⁻¹ s⁻¹
